In US20180251563A1 (SUBDOMAIN, published 2018):

Legend:
TIM3-Fc = molecular target: T1, TIM3-Fc (UniProt Q8TDQ0 22-200); assay: phage ELISA, target-Fc against non-specific control
T1 construct: purified recombinant target-Fc protein; not shown: Fc
Method: (§1) Selections were also performed using F1, F2, F3, C1 & C2 trinucleotide phosphoramidite libraries. In most cases, libraries were pooled prior to use in selection. By combining equal volumes of the individual libraries, Pool F (libraries F1, F2 and F3) and Pool C (libraries C1 and C2) were generated. These libraries were used in selections for DBDpp binders to 4-1BB/CD137 as well as a larger panel of purified recombinant “target”-Fc proteins, including CD47, CTLA4, DR5, KIR, LAG3, OX40, PD1, PD-L1 and TIM3. (Many of these targets are considered immuno-regulatory factors (Pardoll et al., Nat. Rev. Cancer 12:252-264 (2012)). After incubation of the target with the pools of DBDpp phage libraries, bound phage-target complexes were captured and separated from unbound phage with protein A beads (target proteins were Fc fusions). After three rounds of selection, rescued phage clones were screened by ELISA for binding to the selected target.
(§2) For each target, approximately 90 DBDpp phage clones were screened by ELISA for binding to the target protein and as well as a non-specific control (e.g., IgG1-Fc). […] In some instances, for the ELISA screening plate in which the majority of DBDpp clones were positive, the entire plate was sequenced.

CD47-Fc = molecular target: T2, CD47-Fc (UniProt Q08722 19-139); assay: as above
T2 construct: purified recombinant target-Fc protein; not shown: Fc
T2 sequence (Q08722 19-139 limits assumed): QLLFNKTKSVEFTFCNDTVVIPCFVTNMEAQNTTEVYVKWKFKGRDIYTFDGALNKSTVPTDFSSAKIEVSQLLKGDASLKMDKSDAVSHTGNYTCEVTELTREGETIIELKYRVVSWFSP
Method: as §1, §2

cynomolgus PD-L1 = molecular target: T3, cynomolgus PD-L1 (cynomolgus (Macaca fascicularis), UniProt G7PSE7 19-238); assay: ELISA, FLAG-tagged pb04 on immobilised Cynomolgus PDL1-Fc
T3 construct: also called PD-L1 of cynomolgus (Macaca fascicularis)
T3 sequence (G7PSE7 entry or part of it): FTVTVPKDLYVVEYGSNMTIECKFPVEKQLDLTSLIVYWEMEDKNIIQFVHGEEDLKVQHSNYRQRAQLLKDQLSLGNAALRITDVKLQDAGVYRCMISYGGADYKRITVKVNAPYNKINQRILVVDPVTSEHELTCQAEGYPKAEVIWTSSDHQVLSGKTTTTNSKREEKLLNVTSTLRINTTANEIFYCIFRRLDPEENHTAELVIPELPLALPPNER
Method: (§3) FIG. 16A establishes that a soluble DBDpp selected for binding to human PD-L1 (pb04 in this nonlimiting embodiment), can also bind PD-L1 of cynomolgus (Macaca fascicularis), as assessed by ELISA. Human PD-L1 or cynomolgus PD-L1 was immobilized in separate wells of an ELISA plate. Soluble DBDpp (FLAG tagged) directed against PD-L1 was incubated in the respective plates to assess the degree of binding with PD-L1 from each species. As shown, pb04 DBDpp binds to both human and cynomolgus PD-L1.

human PD-L1 = human PD-L1 (human, UniProt Q9NZQ7 19-238, limits assumed); assay: ELISA, FLAG-tagged pb04 on immobilised Human PDL1-Fc
human PD-L1, sequence (Q9NZQ7 19-238 limits assumed): as the sequence (G7PSE7 entry or part of it) above, with T33A, S34A, N62S, Q68R, R82Q, L173F, A185T, I192T, L215H counted along it
Method: as §3

PD-L1-Fc [1] = molecular target: T4, PD-L1-Fc (UniProt Q9NZQ7 19-238); assay: ELISA on PD-L1-Fc, in vitro translated DBDpp-6xHIS heated 2 minutes at 25-100 C and serially diluted, detection with anti-6xHIS-HRP
T4 construct: purified recombinant target-Fc protein; also called FC-PD-L1; not shown: Fc
T4 sequence (Q9NZQ7 19-238 limits assumed): as the sequence (G7PSE7 entry or part of it) above, with T33A, S34A, N62S, Q68R, R82Q, L173F, A185T, I192T, L215H counted along it
Method: DBDpp-6×HIS fusions (pb04 and pb06) and scFv-6×HIS fusions were expressed through in vitro transcription and translation reactions (NEB, PureExpress). Samples were diluted in ELISA blocking buffer (Thermo Fisher) 30 fold. Individual samples were subsequently incubated at either 25° C., 40° C., 55° C., 70° C. or 100° C. for 2 minutes and then rapidly returned to room temperature. The temperature increase, followed by rapid cooling can cause denaturation of the protein or other breakdown of the three-dimensional structure of proteins that reduce target interaction and/or binding. The ability of proteins to bind with a ligand, such as a target tumor antigen, after being exposed to denaturing conditions indicates either enhanced stability during exposure to elevated temperature or an ability to re-fold and maintain function after exposure. […]
The heat-exposed samples were serially diluted in ELISA buffer and measured for binding to PD-L1-Fc in ELISA. Bound proteins were detected with HRP-conjugated rabbit anti-6×HIS polyclonal antibody (Abcam). […] Since this particular scFv is not configured to bind PD-L1, this function as a negative control, and as expected, no binding is detected for any of the DR5 scFv, regardless of the temperatures they were exposed to. […]

PD-L1-Fc [2] = molecular target: T4, PD-L1-Fc; assay: ELISA, purified FLAG-tagged protein on PD-L1-Fc coated wells
[3] = molecular target: T5, recombinant, biotinylated, Human 4-1BB/TNFRSF9/CD137-Fc (human, UniProt Q07011 24-186, biotinylated (F2NNK selection)); assay: phage ELISA, target-Fc against non-specific control (IgG Fc)
T5 construct: also called 4-1BB/CD137; not shown: Fc
T5 sequence (Q07011 24-186 limits assumed): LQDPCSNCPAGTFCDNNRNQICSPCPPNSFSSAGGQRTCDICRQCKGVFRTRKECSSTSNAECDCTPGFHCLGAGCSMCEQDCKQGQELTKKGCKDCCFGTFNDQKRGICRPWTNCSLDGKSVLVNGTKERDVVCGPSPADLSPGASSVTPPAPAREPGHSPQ
Text: The F2NNK DBD library was used in five rounds of selection against recombinant, biotinylated, Human 4-1BB/TNFRSF9/CD137-Fc.

PD1-Fc = molecular target: T6, PD1-Fc (UniProt Q15116 25-167); assay: phage ELISA, target-Fc against non-specific control
T6 construct: purified recombinant target-Fc protein; not shown: Fc
T6 sequence (Q15116 25-167 limits assumed): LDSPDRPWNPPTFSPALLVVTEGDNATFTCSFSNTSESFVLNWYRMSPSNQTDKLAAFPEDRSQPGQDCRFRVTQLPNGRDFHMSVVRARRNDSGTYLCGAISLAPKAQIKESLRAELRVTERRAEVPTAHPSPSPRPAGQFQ
Method: as §1, §2

[4] = molecular target: T7, Fc-fusion protein comprising the extracellular domain of CD123 fused to human IgG1 Fc (human, UniProt P26951 19-305); assay: flow cytometry, transiently transfected 293T cells incubated with CD123-Fc, detection with PE anti-human IgG; CAR expression by anti-FLAG
T7 construct: also called Fc-CD123; not shown: human IgG1 Fc
T7 sequence: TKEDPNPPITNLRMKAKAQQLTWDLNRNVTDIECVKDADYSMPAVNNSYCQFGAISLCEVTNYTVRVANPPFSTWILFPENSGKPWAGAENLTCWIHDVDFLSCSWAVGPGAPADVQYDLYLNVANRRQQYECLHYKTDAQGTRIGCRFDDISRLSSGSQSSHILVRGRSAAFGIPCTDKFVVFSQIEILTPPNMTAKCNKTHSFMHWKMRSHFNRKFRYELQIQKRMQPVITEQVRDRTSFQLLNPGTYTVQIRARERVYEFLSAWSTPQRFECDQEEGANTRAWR
Method: 293T cells were transiently transfected with pcDNA3 expression vectors encoding DBDpp containing CARs using (see, e.g., FIG. 5B) Lipofectamine 3000 (Life Technologies). After 24 hours, cells were collected using CellStripper™. Cells were assessed for CAR expression using a fluorescent-labeled anti-FLAG antibody. DBDpp containing CARs binding to CD123 was measured by incubating cells with a Fc-fusion protein comprising the extracellular domain of CD123 fused to human IgG1 Fc in cell culture media at 37° for 30 minutes, washing, and then detection with a PE anti-human IgG antibody. Both CD123 binding and CAR expression (FLAG Tag) were assayed by flow cytometry. Data are shown in FIG. 17, and each data point indicates the average FLAG expression and CD123-binding for each of the DBDpp-CARs from multiple experiments.

CTLA4-Fc = molecular target: T8, CTLA4-Fc (UniProt P16410 36-161, limits assumed); assay: phage ELISA, target-Fc against non-specific control
T8 construct: purified recombinant target-Fc protein; not shown: Fc
T8 sequence (P16410 36-161 limits assumed): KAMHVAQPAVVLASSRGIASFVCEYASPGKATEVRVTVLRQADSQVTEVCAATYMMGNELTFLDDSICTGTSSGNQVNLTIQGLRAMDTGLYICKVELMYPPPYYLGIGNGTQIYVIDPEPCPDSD
Method: as §1, §2

B1: SEQ ID NO 45 (designed binder)
chain: MGSWVVFKVDLATIKYILEALGGSEAELAEFEGEIAGFEYSLQFYKGKGNPEVEALRKEAAAIRDELQAYRHN
ELISA ratio (target to background) (TIM3-Fc): 5.79 ratio

B2: SEQ ID NO 23 (designed binder)
chain: MGSWTEFVGRLAAIEFRLWALGGSEAELAWFEAHIAFFEDYLQWYKGKGNPEVEALREEAGAIMEELKAYRHN
ELISA ratio (target to background) (CD47-Fc): 8.23 ratio

B3: FLAG-pb04 (designed binder)
chain: MGSWYEFTVRLEAIHERLKALGGSEAELAAFEKEIAAFESELQAYKGKGNPEVEILRDDAAFIRRFLQAYRHN
notes: expressed and purified from E. coli; also called N-terminal FLAG tag fusion of pb04; soluble DBDpp (FLAG tagged) directed against PD-L1; not shown: N-terminal FLAG tag
EC50 (cynomolgus PD-L1): 42.1 nM | EC50 (human PD-L1): 31.4 nM

B4: pb06 DBDpp-6xHIS fusion (designed binder)
chain: MGSWYEFDDRLNAIHDRLQALGGSEAELAAFEKEIAAFESELQAYKGKGNPEVEDLRDDAAFIRRFLQAYRHN
notes: made by in vitro transcription and translation; not shown: 6xHIS tag
binding result (PD-L1-Fc [1]): binds

B5: FLAG-α3D (other)
chain: MGSWAEFKQRLAAIKTRLQALGGSEAELAAFEKEIAAFESELQAYKGKGNPEVEALRKEAAAIRDELQAYRHN
notes: expressed and purified from E. coli; also called N-terminal FLAG tag fusion of a3D; alpha3D; not shown: N-terminal FLAG tag
binding result (PD-L1-Fc [2]): no binding (tested: about 1000 nM)

B6: bb10 (designed binder)
chain: MGSWAEFKQRLAAIKTRLEALGGSEAELAAFLGEIWAFEMELAAYKGKGNPEVEALGREAAAIRMELQAYRHN
notes: F2NNK library clone
ELISA ratio (target to background) [3]: 5.27 ratio

B7: SEQ ID NO 46 (designed binder)
chain: MGSWTIFKEWLAFIKTDLEALGGSEAELAFFEGWIASFEMELQKYKGKGNPEVEALRKEAAAIRDELQAYRHN
ELISA ratio (target to background) (PD1-Fc): 17.1 ratio

B8: SEQ ID NO 47 (designed binder)
chain: MGSWVMFKWLLADIKSHLEALGGSEAELAFFEGFIAAFETHLQVYKGKGNPEVEALRKEAAAIRDELQAYRHN
ELISA ratio (target to background) (PD1-Fc): 8.13 ratio

B9: cg06 DBDpp-CAR (other)
chain: MGSWDEFGRRLYAIEWRLYALGGSEAELAAFEKEIAAFESELQAYKGKGNPEVEKLREIAAVIRSNLQAYRHN
notes: expressed on Jurkat NFAT reporter cells; not shown: rest of the CAR (FLAG tag, linker, transmembrane and intracellular domains) not specified
binding result [4]: binds

B10: SEQ ID NO 48 (designed binder)
chain: MGSWYAFKDYLADIKGWLEALGGSEAELAFFEIFIARFELELQAYKGKGNPEVEALRKEAAAIRDELQAYRHN
ELISA ratio (target to background) (PD1-Fc): 3.29 ratio

B11: SEQ ID NO 24 (designed binder)
chain: MGSWTEFYSRLEAIWVRLQALGGSEAELAMFEDRIAHFEWFLQQYKGKGNPEVEALHEEAIAIRKELAAYRHN
ELISA ratio (target to background) (CD47-Fc): 4.58 ratio

B12: SEQ ID NO 25 (designed binder)
chain: MGSWHEFHDRLQAIHERLYALGGSEAELAAFEKEIAAFESELQAYKGKGNPEVESLRIAAAHIRQVLQAYRHN
ELISA ratio (target to background) (CTLA4-Fc): 2.95 ratio
